From PMC7055376, “Evidence for binary Smc complexes lacking kite subunits in archaea” (IUCrJ, 2020)

What was measured:
[1] = target: T1, (His)10-MBP-tagged Thermococcus onnurineus ScpA (TON_1071) (Thermococcus onnurineus, UniProt B6YWU6); assay: His pull-down (Ni-NTA) and size-exclusion chromatography
T1 chain: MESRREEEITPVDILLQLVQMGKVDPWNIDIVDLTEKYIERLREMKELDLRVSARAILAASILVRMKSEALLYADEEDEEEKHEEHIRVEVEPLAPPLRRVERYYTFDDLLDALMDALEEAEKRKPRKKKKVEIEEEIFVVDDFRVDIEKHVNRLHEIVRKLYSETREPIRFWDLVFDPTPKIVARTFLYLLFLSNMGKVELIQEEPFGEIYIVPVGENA

[2] = target: the molecule itself; assay: SEC; individual ScpB homologue alone on Superdex 200 Increase 10/300 GL; 20 mM Tris-HCl pH 7.5, 100 mM NaCl, 1 mM DTT, 4°C; elution compared with 158 kDa and 43 kDa markers
[3] = target: the molecule itself; assay: crystal structure; SeMet-substituted full-length PYCH_12850; 35% pentaerythritol propoxylate, 0.1 M MES pH 5.5, 0.4 M NaCl, 22°C

B1: TON_1955 (putative Thermococcus onnurineus ScpB), untagged (protein)
chain: MGLLEDKALVEAALFVSGRPLSIKELSRALGIRSLDYLEKLIELIAAEYAERKSAIEVVRVLGDKYVMQVKQEYSQRVVHLMPRPDLRTGELKTLALIAYLQPIEQSKLVKLRGSQAYEHIRKLLEMGLIYAEPYERTKLLGTTPKFAELYGFPENDPMMIKEAFKKVVHAEYSDLIAKLEGKEEKEEMPQESEE
Does B1 bind [1]?
Result: no binding

B2: Metli_0606 (sole ScpB homologue of Methanofollis liminatans), untagged (natural protein, UniProt J1ANV5 1-161, looked up)
chain: MVDRTAMLEAALFVADAPVSYGDLAKIFGIKPGEVPALAQELSGRLSARSSPLEVIDSGESVFMVLKEEYAVLVYPVMRPEISRAVLRTLSVIAYRQPILQSDLIEIRGGGAYAHVEELVKRDLVARYRSGRSYLLQTTPEFSRYFKTSDLVGGQGRLDID
notes: ScpB homologue Metli_0606 of Methanofollis liminatans; untagged in the assays; also called ScpB homologue Metli_0606; source: E. coli BL21 (DE3) RIPL, purified
Which “stoichiometry N” value [2] does the source give for B2 here?
The value was 2.

B3: Selenomethionine-substituted full-length PYCH_12850 (crystallised) (natural protein, Pyrococcus yayanosii, UniProt F8AFC4 1-192, looked up)
chain: MGLLEDKALVEAALFVAGRPLSLKELSKALGIKSLEYLEKLIELIASEYEERKSAIEVVKVLGDKWVMQLKQEYSQKVIHLMPKPELRAGELKTLALIAYLQPVEQSKIIKLRGSQAYEHIKKLLEMGLIYAEPYERTKLLGTTQKFAELYGFPENDPELIKEAFKKVIHSEYADLMEKIEKNNRKDKREEA
modifications: selenomethionine in place of methionine
notes: ScpB homologue PYCH_12850 of Pyrococcus yayanosii, full length; homodimer in the crystal; also called PYCH_12850 (SeMet); ScpB from Pyrococcus yayanosii; source: E. coli B834 (DE3) RIL, purified
Does B3 bind [3]?
Result: binds
